Assay results from PMC7316778 (Nature Communications, 2020).

Legend:
Experiment in all cases: PamChip microarray peptide phosphorylation
FES^WT = biological target: T1, FES^WT (Homo sapiens, UniProt P07332); format: biochemical; settings: peptide substrate phosphorylated by FES - WT
T1 construct: human FES cDNA encoding residues 448–822 or human FER cDNA encoding residues 448–820 was amplified by PCR; made in house; host or cells: E. coli BL21(DE3), co-expressing YopH phosphatase

FGR = FGR (Homo sapiens, UniProt P09769); settings: peptide substrate phosphorylated by FGR
CSK = CSK (Homo sapiens, UniProt P41240); settings: peptide substrate phosphorylated by CSK
SYK = SYK (Homo sapiens, UniProt P43405); settings: peptide substrate phosphorylated by SYK
LYN = LYN (Homo sapiens, UniProt P07948); settings: peptide substrate phosphorylated by LYN
ABL1 = ABL1 (Homo sapiens, UniProt P00519); settings: peptide substrate phosphorylated by ABL1
ABL1, sequence (P00519 whole entry): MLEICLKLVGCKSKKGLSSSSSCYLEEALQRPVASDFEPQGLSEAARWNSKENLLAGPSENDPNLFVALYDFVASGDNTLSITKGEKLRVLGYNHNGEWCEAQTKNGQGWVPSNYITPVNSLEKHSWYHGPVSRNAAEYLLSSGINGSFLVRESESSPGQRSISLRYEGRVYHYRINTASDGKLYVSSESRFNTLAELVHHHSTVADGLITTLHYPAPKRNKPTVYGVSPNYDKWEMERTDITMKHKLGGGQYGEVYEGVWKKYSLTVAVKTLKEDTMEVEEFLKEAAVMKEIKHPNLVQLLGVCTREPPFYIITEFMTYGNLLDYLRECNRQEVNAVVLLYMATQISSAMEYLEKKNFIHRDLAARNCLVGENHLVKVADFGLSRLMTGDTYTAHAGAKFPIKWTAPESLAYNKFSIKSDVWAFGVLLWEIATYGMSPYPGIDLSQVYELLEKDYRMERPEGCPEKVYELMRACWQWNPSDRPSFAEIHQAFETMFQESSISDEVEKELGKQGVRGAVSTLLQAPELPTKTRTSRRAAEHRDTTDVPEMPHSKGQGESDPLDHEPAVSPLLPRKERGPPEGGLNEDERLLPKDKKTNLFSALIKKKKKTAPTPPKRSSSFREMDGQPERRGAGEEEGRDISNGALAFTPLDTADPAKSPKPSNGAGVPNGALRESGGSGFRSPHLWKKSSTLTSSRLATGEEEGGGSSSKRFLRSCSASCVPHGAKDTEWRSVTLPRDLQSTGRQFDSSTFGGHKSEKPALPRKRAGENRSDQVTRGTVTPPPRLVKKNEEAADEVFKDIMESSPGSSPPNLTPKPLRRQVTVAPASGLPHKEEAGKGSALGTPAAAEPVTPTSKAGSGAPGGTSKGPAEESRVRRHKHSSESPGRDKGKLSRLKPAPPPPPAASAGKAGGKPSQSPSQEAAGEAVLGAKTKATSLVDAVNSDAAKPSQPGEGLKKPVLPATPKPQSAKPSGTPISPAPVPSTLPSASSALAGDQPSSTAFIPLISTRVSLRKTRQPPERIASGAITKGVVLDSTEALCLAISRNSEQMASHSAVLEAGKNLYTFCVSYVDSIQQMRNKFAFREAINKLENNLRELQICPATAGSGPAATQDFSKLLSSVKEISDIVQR

T1 sequence (P07332 448-822): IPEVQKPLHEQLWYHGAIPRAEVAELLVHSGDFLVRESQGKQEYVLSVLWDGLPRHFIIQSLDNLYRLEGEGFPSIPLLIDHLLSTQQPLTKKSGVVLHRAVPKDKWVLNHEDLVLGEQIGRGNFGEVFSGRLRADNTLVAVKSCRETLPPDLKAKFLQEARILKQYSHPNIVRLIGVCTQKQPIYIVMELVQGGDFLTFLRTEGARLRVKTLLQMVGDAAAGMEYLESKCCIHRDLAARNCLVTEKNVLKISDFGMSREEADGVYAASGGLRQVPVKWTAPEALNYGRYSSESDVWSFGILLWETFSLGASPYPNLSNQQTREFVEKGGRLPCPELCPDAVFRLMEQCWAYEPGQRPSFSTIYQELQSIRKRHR
CSK, sequence (P41240 whole entry): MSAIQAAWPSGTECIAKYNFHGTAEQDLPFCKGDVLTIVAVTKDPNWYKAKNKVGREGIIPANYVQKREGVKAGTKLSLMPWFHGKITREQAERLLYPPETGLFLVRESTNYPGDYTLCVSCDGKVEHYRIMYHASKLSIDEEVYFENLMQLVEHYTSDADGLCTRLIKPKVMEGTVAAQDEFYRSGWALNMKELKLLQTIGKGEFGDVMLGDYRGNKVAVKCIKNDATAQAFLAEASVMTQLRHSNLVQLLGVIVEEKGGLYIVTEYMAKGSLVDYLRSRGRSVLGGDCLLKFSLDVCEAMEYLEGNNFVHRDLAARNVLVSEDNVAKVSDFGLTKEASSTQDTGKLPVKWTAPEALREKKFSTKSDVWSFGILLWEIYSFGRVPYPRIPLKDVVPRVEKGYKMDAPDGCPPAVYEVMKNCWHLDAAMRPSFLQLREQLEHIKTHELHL
LYN, sequence (P07948 whole entry): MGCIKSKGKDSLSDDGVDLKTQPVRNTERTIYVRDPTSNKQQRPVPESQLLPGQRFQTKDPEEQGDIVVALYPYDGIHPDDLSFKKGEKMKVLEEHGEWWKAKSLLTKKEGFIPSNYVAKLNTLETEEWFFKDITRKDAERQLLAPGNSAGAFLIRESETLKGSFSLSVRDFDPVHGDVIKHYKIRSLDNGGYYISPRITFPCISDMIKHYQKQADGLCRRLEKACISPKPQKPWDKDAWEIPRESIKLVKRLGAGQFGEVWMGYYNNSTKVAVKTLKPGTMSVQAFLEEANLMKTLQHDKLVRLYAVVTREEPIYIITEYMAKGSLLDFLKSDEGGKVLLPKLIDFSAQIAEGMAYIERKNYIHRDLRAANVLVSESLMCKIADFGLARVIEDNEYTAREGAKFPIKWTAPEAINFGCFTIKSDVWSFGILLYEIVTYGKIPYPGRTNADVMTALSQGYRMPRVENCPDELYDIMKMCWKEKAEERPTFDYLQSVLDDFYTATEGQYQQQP

Row | Substance | Relative phosphorylation (% of highest signal) (FES^WT) | Relative phosphorylation (% of highest signal) (FGR) | Relative phosphorylation (% of highest signal) (CSK) | Relative phosphorylation (% of highest signal) (SYK) | Relative phosphorylation (% of highest signal) (LYN) | Relative phosphorylation (% of highest signal) (ABL1)
1 | MBP_259_271 (FGYGGRASDYKSA; UniProt P02686 259-271, looked up, fragment) | -0.152 % of highest signal | 0.634 % of highest signal | -0.0622 % of highest signal | 0.9 % of highest signal | -0.152 % of highest signal | -0.0479 % of highest signal
2 | ART_004_EAIYAAPFAKKKXC | 5.0 % of highest signal | 8.3 % of highest signal | 17.0 % of highest signal | 3.2 % of highest signal | 2.6 % of highest signal | 100.0 % of highest signal
3 | VGFR2_1046_1058 (DFGLARDIYKDPD; UniProt P35968 1046-1058, looked up, fragment) | 1.1 % of highest signal | 1.2 % of highest signal | 2.2 % of highest signal | 0.6 % of highest signal | 0.243 % of highest signal | -0.11 % of highest signal
4 | VGFR2_1168_1180 (AQQDGKDYIVLPI; UniProt P35968 1168-1180, looked up, fragment) | 6.1 % of highest signal | -1.8 % of highest signal | 0.544 % of highest signal | 2.7 % of highest signal | 0.147 % of highest signal | 0.014 % of highest signal
5 | VGFR2_944_956 (RFRQGKDYVGAIP; UniProt P35968 944-956, looked up, fragment) | 0.741 % of highest signal | -1.0 % of highest signal | -0.8 % of highest signal | 0.9 % of highest signal | -0.364 % of highest signal | -0.378 % of highest signal
6 | VGFR3_1061_1073 (DIYKDPDYVRKGS; UniProt P35916 1061-1073, looked up, fragment) | -0.0595 % of highest signal | 0.468 % of highest signal | 0.341 % of highest signal | 2.4 % of highest signal | 0.0483 % of highest signal | 2.9 % of highest signal
7 | ZBT16_621_633 (LRTHNGASPYQCT; UniProt Q05516 621-633, looked up, fragment) | 0.657 % of highest signal | 3.8 % of highest signal | -0.468 % of highest signal | -1.0 % of highest signal | -0.2 % of highest signal | -0.119 % of highest signal
8 | EPOR_361_373 (SEHAQDTYLVLDK; UniProt P19235 361-373, looked up, fragment) | 3.3 % of highest signal | 2.0 % of highest signal | 2.0 % of highest signal | 12.7 % of highest signal | 1.2 % of highest signal | 0.0544 % of highest signal
9 | STAT4_686_698 (TERGDKGYVPSVF; UniProt Q14765 686-698, looked up, fragment) | -0.247 % of highest signal | -4.1 % of highest signal | -0.9 % of highest signal | -1.2 % of highest signal | -0.165 % of highest signal | -0.7 % of highest signal
10 | STAT6_634_646 (MGKDGRGYVPATI; UniProt P42226 634-646, looked up, fragment) | -0.355 % of highest signal | -4.7 % of highest signal | -1.1 % of highest signal | -2.2 % of highest signal | -0.3 % of highest signal | -0.6 % of highest signal
11 | VGFR1_1235_1247 (ATSMFDDYQGDSS; UniProt P17948 1235-1247, looked up, fragment) | -0.11 % of highest signal | 0.9 % of highest signal | -0.5 % of highest signal | 17.6 % of highest signal | -0.0433 % of highest signal | -0.543 % of highest signal
12 | VGFR1_1320_1332_C1320K/C1321K (KKSPPPDYNSVVL; UniProt P17948 1320-1332, looked up, variant C1320K C1321K) | 2.0 % of highest signal | -2.8 % of highest signal | -0.847 % of highest signal | 4.3 % of highest signal | -0.28 % of highest signal | -0.0535 % of highest signal
13 | STA5A_687_699 (LAKAVDGYVKPQI; UniProt P42229 687-699, looked up, fragment) | -0.46 % of highest signal | -3.6 % of highest signal | -1.3 % of highest signal | -1.9 % of highest signal | -0.4 % of highest signal | -0.439 % of highest signal
14 | EPHA2_581_593 (QLKPLKTYVDPHT; UniProt P29317 581-593, looked up, fragment) | -0.0404 % of highest signal | -3.2 % of highest signal | -0.569 % of highest signal | -1.0 % of highest signal | -0.186 % of highest signal | -0.273 % of highest signal
15 | VGFR1_1162_1174 (VQQDGKDYIPINA; UniProt P17948 1162-1174, looked up, fragment) | 2.3 % of highest signal | -3.4 % of highest signal | -0.737 % of highest signal | 1.8 % of highest signal | -0.153 % of highest signal | -0.426 % of highest signal
